Measured values: patent publication US20210179729A1 (University of California, published 2021)

What was measured:
[1] = biological target: CD3 on the surface of T-cells (Jurkat reporter cells) (UniProt P07766); assay: cell-based or functional assay
[2] = biological target: CDCP1 on human cells (MCF10A KRASG12V, HPAC) (human) (UniProt Q9H5V8); assay: cell-based or functional assay
[3] = biological target: T1, CDCP1 extracellular domain displayed on the surface of HEK293 (T-Rex-293) cells (human, UniProt Q9H5V8 30-667); assay: flow cytometry, Fab on CDCP1 Cell
T1 construct: extracellular domain; also called CDCP1 Cell; not shown: fluorescent protein expression reporter and generic single-pass transmembrane domain
T1 sequence (looked up): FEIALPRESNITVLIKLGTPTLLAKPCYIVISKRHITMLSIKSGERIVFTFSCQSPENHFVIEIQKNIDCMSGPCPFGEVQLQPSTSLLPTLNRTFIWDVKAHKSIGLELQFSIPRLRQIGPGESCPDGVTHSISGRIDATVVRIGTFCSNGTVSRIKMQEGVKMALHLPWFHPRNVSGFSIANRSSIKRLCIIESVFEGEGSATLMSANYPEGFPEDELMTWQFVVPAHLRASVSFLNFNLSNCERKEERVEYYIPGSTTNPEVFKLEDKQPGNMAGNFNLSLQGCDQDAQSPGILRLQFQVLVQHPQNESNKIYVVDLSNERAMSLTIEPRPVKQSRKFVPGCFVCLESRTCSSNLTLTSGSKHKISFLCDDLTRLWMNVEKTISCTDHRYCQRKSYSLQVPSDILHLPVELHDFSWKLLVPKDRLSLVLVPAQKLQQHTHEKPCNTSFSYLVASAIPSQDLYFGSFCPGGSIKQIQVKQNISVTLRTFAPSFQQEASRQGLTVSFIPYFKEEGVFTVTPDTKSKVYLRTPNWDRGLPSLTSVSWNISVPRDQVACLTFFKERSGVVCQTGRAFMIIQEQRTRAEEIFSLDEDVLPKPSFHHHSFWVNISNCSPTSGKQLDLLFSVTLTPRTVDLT

[4] = biological target: T2, Cynomolgus monkey CDCP1 (Cynomolgus monkey, UniProt A0A2K5VLA8 30-667); assay: ELISA; column head 'ELISA~EC50 Kd (nM)'
T2 construct: construct not described
T2 sequence: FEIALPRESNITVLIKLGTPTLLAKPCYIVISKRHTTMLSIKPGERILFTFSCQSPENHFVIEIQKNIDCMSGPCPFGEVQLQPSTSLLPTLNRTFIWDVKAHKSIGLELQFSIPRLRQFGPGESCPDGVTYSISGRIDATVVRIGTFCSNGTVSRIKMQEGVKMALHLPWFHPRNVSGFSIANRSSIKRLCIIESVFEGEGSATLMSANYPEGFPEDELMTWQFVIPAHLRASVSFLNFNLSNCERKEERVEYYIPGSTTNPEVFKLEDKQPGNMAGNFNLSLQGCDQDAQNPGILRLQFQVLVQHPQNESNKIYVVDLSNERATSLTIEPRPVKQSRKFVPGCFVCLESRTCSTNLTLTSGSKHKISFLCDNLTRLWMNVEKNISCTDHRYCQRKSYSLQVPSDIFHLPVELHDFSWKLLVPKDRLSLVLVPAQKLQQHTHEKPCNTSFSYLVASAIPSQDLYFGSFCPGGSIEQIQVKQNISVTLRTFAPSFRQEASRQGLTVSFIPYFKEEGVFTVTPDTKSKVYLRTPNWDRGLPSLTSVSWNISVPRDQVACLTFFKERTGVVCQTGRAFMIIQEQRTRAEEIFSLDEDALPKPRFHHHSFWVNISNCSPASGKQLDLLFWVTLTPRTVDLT

[5] = biological target: T3, Human CDCP1 (human, UniProt Q9H5V8 30-667, limits assumed); assay: ELISA; column head 'ELISA~EC50 Kd (nM)'
T3 construct: also called CUB domain-containing protein 1; SIMA135
T3 sequence (looked up): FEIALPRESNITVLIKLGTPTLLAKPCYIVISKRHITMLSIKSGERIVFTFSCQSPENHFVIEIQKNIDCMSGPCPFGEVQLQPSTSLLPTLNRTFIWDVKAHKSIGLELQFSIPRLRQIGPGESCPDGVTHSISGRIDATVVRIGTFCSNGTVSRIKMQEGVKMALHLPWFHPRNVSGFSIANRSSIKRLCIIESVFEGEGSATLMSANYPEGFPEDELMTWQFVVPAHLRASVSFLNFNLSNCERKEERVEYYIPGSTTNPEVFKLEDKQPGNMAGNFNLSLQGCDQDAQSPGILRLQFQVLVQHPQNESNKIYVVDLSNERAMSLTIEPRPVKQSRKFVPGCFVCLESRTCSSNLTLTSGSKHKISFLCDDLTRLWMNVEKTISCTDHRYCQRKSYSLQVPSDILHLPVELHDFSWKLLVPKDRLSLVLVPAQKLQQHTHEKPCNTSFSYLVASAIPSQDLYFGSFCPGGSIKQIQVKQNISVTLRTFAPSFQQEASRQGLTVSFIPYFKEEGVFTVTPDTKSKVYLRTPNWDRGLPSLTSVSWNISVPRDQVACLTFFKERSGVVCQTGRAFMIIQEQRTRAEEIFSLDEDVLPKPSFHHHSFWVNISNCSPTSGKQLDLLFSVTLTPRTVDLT

[6] = biological target: T4, CDCP1 aas 30-367 (human, UniProt Q9H5V8 30-367); assay: ELISA, CDCP1 specificity on fragments
T4 construct: range 30-367
T4 sequence (looked up): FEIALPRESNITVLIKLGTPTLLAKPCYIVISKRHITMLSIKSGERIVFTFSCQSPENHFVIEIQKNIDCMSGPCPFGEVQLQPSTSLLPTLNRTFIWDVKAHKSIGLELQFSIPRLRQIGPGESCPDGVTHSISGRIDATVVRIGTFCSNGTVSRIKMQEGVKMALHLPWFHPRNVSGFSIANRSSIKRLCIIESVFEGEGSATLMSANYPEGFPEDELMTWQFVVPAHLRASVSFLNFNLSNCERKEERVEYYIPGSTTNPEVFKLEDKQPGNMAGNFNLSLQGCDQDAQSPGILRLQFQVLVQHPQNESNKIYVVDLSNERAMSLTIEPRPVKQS

Chain of CD3 on the surface of T-cells (Jurkat reporter cells) (P07766 23-207): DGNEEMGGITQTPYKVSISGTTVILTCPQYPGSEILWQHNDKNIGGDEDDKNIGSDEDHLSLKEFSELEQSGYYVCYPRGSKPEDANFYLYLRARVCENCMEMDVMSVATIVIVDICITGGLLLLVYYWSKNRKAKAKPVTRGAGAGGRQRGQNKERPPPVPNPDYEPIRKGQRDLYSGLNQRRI

CDCP1 BiTE (CDCP1-002 Fab genetically fused to OKT3 anti-CD3 scFv) (bispecific antibody)
T-cell activation (NFAT-dependent GFP reporter, flow cytometry) in co-culture with HPAC cells at 1 nM BiTE [1]: 75% | T-cell activation (NFAT-dependent GFP reporter, flow cytometry) in co-culture with HPAC cells at 1 nM BiTE [2]: 75%

B1: CDCP1-004 Fab (Fab, V domains shown)
VH: EVQLVESGGGLVQPGGSLRLSCAASGFNISYYYMHWVRQAPGKGLEWVASIYSSYGYTSYADSVKGRFTISADTSKNTAYLQMNSLRAEDTAVYYCARVYYGFDYWGQGTLVTVSS
VL: DIQMTQSPSSLSASVGDRVTITCRASQSVSSAVAWYQQKPGKAPKLLIYSASSLYSGVPSRFSGSRSGTDFTLTISSLQPEDFATYYCQQSYYVYPITFGQGTKVEIK
notes: Tested as Fab
Flow Cytometry (MFI) [3]: 770 MFI | EC50 [4]: 34.9 nM | EC50 [5]: 2.37 nM

B2: CDCP1-005 Fab (Fab, V domains shown)
VH: EVQLVESGGGLVQPGGSLRLSCAASGFNISYYYIHWVRQAPGKGLEWVASIYPYYGSTYYADSVKGRFTISADTSKNTAYLQMNSLRAEDTAVYYCARAYYGFDYWGQGTLVTVSS
VL: DIQMTQSPSSLSASVGDRVTITCRASQSVSSAVAWYQQKPGKAPKLLIYSASSLYSGVPSRFSGSRSGTDFTLTISSLQPEDFATYYCQQSYWSFPITFGQGTKVEIK
notes: Tested as Fab
Flow Cytometry (MFI) [3]: 870 MFI

B3: CDCP1-002 Fab (Fab, V domains shown)
VH: EVQLVESGGGLVQPGGSLRLSCAASGFNLSYYYIHWVRQAPGKGLEWVASIYSSSSYTSYADSVKGRFTISADTSKNTAYLQMNSLRAEDTAVYYCARAYYGFDYWGQGTLVTVSS
VL: DIQMTQSPSSLSASVGDRVTITCRASQSVSSAVAWYQQKPGKAPKLLIYSASSLYSGVPSRFSGSRSGTDFTLTISSLQPEDFATYYCQQSYYYYPITFGQGTKVEIK
notes: Tested as Fab from a synthetic Fab-phage library; Used 89Zr-labeled for PET and 125I-labeled for Bmax; also called CDCP1-4A06; CDCP1 Fab
Flow Cytometry (MFI) [3]: 1160 MFI | EC50 [4]: 19.6 nM | EC50 [5]: 0.651 nM

B4: CDCP1-008 Fab (Fab, V domains shown)
VH: EVQLVESGGGLVQPGGSLRLSCAASGFNISSYYMHWVRQAPGKGLEWVASIYPYSGYTYYADSVKGRFTISADTSKNTAYLQMNSLRAEDTAVYYCARAYYAMDYWGQGTLVTVSS
VL: DIQMTQSPSSLSASVGDRVTITCRASQSVSSAVAWYQQKPGKAPKLLIYSASSLYSGVPSRFSGSRSGTDFTLTISSLQPEDFATYYCQQSYYVYPITFGQGTKVEIK
notes: Tested as Fab
Flow Cytometry (MFI) [3]: 673 MFI | EC50 [4]: 97.1 nM | EC50 [5]: 76.2 nM

B5: CDCP1-007 Fab (Fab, V domains shown)
VH: EVQLVESGGGLVQPGGSLRLSCAASGFNIYSYYIHWVRQAPGKGLEWVASIYPYYGYTSYADSVKGRFTISADTSKNTAYLQMNSLRAEDTAVYYCARAYYGMDYWGQGTLVTVSS
VL: DIQMTQSPSSLSASVGDRVTITCRASQSVSSAVAWYQQKPGKAPKLLIYSASSLYSGVPSRFSGSRSGTDFTLTISSLQPEDFATYYCQQSYFYWPITFGQGTKVEIK
notes: Tested as Fab
Flow Cytometry (MFI) [3]: 2.33 MFI | EC50 [4]: 22.4 nM | EC50 [5]: 18 nM

B6: CDCP1-003 Fab (Fab, V domains shown)
VH: EVQLVESGGGLVQPGGSLRLSCAASGFNISYYSMHWVRQAPGKGLEWVASISPYSGYTSYADSVKGRFTISADTSKNTAYLQMNSLRAEDTAVYYCARGYYALDYWGQGTLVTVSS
VL: DIQMTQSPSSLSASVGDRVTITCRASQSVSSAVAWYQQKPGKAPKLLIYSASSLYSGVPSRFSGSRSGTDFTLTISSLQPEDFATYYCQQYYYFYPFTFGQGTKVEIK
notes: Tested as Fab
Flow Cytometry (MFI) [3]: 180 MFI | EC50 [4]: 666 nM | EC50 [5]: 65.3 nM

B7: CDCP1-006 Fab (Fab, V domains shown)
VH: EVQLVESGGGLVQPGGSLRLSCAASGFNLYYSYMHWVRQAPGKGLEWVAYISPYSGSTYYADSVKGRFTISADTSKNTAYLQMNSLRAEDTAVYYCARYSYSALDYWGQGTLVTVSS
VL: DIQMTQSPSSLSASVGDRVTITCRASQSVSSAVAWYQQKPGKAPKLLIYSASSLYSGVPSRFSGSRSGTDFTLTISSLQPEDFATYYCQQSSWHYHLFTFGQGTKVEIK
notes: Tested as Fab
Flow Cytometry (MFI) [3]: 52.3 MFI | binding result [6]: no binding | EC50 [4]: 3.34 nM | EC50 [5]: 29.6 nM
